Experimental data from the supplement of paper PMC9112550, “Optimization of the antimicrobial peptide Bac7 by deep mutational scanning” (BMC Biology, 2022).

tested on: Escherichia coli TOP10; test: shrunken log2 fold change of peptide-encoding DNA abundance (4.5 h post-induction vs induction); higher = less antimicrobial activity (less host growth inhibition); conditions: time post-induction: 4.5 h; library: site-saturation at positions 5, 18, 19, 20
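Note: peptides expressed intracellularly from a pBAD plasmid library in pooled LB shake-flask culture, induced with 0.3% L-arabinose, DNA abundance read by NGS, three biological replicates, DESeq2 with apeglm shrinkage.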

Sequence	shrunken log2 fold change
RRIRMRPPRLPRPRPRPIQIPRP	-0.155
RRIRMRPPRLPRPRPRPIRFPRP	-0.133
RRIRMRPPRLPRPRPRPIRHPRP	0.017
RRIRMRPPRLPRPRPRPIRYPRP	0.0982
RRIRMRPPRLPRPRPRPISQPRP	-0.29
RRIRMRPPRLPRPRPRPISRPRP	0.074
RRIRMRPPRLPRPRPRPIVDPRP	0.35
RRIRMRPPRLPRPRPRPIVHPRP	-0.289
RRIRMRPPRLPRPRPRPIVQPRP	-0.0131
RRIRMRPPRLPRPRPRPIWFPRP	0.1
RRIRMRPPRLPRPRPRPIWKPRP	0.00523
RRIRMRPPRLPRPRPRPIWSPRP	0.0584
RRIRMRPPRLPRPRPRPIYKPRP	-0.0684
RRIRMRPPRLPRPRPRPIYMPRP	-0.0618
RRIRMRPPRLPRPRPRPKCTPRP	0.995
RRIRMRPPRLPRPRPRPKDYPRP	0.224
RRIRMRPPRLPRPRPRPKEMPRP	0.31
RRIRMRPPRLPRPRPRPKFMPRP	0.0431
RRIRMRPPRLPRPRPRPKGDPRP	2.08
RRIRMRPPRLPRPRPRPKGEPRP	1.27
RRIRMRPPRLPRPRPRPKGPPRP	0.716
RRIRMRPPRLPRPRPRPKGVPRP	1.1
RRIRMRPPRLPRPRPRPKHFPRP	0.176
RRIRMRPPRLPRPRPRPKHLPRP	0.142
RRIRMRPPRLPRPRPRPKIEPRP	0.367

Sequence	shrunken log2 fold change
RRIRMRPPRLPRPRPRPKISPRP	0.0938
RRIRMRPPRLPRPRPRPKIWPRP	0.704
RRIRMRPPRLPRPRPRPKKRPRP	2.01
RRIRMRPPRLPRPRPRPKLTPRP	1.14
RRIRMRPPRLPRPRPRPKPVPRP	0.895
RRIRMRPPRLPRPRPRPKSMPRP	0.0732
RRIRMRPPRLPRPRPRPKTCPRP	0.12
RRIRMRPPRLPRPRPRPKTMPRP	-0.0578
RRIRMRPPRLPRPRPRPKTVPRP	0.847
RRIRMRPPRLPRPRPRPKVFPRP	0.0743
RRIRMRPPRLPRPRPRPKWGPRP	0.729
RRIRMRPPRLPRPRPRPKWIPRP	-0.124
RRIRMRPPRLPRPRPRPLDEPRP	0.0492
RRIRMRPPRLPRPRPRPLDFPRP	-0.129
RRIRMRPPRLPRPRPRPLELPRP	0.337
RRIRMRPPRLPRPRPRPLFQPRP	-0.279
RRIRMRPPRLPRPRPRPLFSPRP	0.0255
RRIRMRPPRLPRPRPRPLFTPRP	-0.171
RRIRMRPPRLPRPRPRPLFWPRP	0.554
RRIRMRPPRLPRPRPRPLGAPRP	1.25
RRIRMRPPRLPRPRPRPLGSPRP	0.169
RRIRMRPPRLPRPRPRPLHDPRP	0.487
RRIRMRPPRLPRPRPRPLHYPRP	-0.173
RRIRMRPPRLPRPRPRPLKCPRP	-0.0167
RRIRMRPPRLPRPRPRPLKGPRP	-0.0357

Sequence	shrunken log2 fold change
RRIRMRPPRLPRPRPRPLKIPRP	-0.0474
RRIRMRPPRLPRPRPRPLKRPRP	0.0303
RRIRMRPPRLPRPRPRPLLNPRP	0.366
RRIRMRPPRLPRPRPRPLNTPRP	0.163
RRIRMRPPRLPRPRPRPLPKPRP	1.11
RRIRMRPPRLPRPRPRPLPMPRP	0.429
RRIRMRPPRLPRPRPRPLRFPRP	0.74
RRIRMRPPRLPRPRPRPLRHPRP	1.98
RRIRMRPPRLPRPRPRPLTRPRP	0.608
RRIRMRPPRLPRPRPRPLTTPRP	1.06
RRIRMRPPRLPRPRPRPLVLPRP	0.141
RRIRMRPPRLPRPRPRPLVWPRP	0.955
RRIRMRPPRLPRPRPRPLWHPRP	0.336
RRIRMRPPRLPRPRPRPMAKPRP	0.245
RRIRMRPPRLPRPRPRPMDFPRP	-0.00448
RRIRMRPPRLPRPRPRPMDGPRP	0.418
RRIRMRPPRLPRPRPRPMDHPRP	-0.00783
RRIRMRPPRLPRPRPRPMHIPRP	0.0159
RRIRMRPPRLPRPRPRPMIMPRP	0.421
RRIRMRPPRLPRPRPRPMKGPRP	0.235
RRIRMRPPRLPRPRPRPMNAPRP	-0.0277
RRIRMRPPRLPRPRPRPMNHPRP	-0.129
RRIRMRPPRLPRPRPRPMNVPRP	-0.147
RRIRMRPPRLPRPRPRPMNWPRP	-0.117
RRIRMRPPRLPRPRPRPMPYPRP	0.018
